These results are taken from PMC4912631, “Structure of the exportin Xpo4 in complex with RanGTP and the hypusine-containing translation factor eIF5A” (Nature Communications, 2016).

The chains are these.
B2: Xpo4 wild type (natural protein)
chain: not shown

Holding throughout (settings): both partners purified
Assay [1] deals with B2. In words: pull-down; export complexes formed with Xpo4, eIF5A (full-length or truncated) and ZZ-bdNEDD8-tagged RanGTP; immobilised via tagged Ran; eluted by bdNEDP1 protease; SDS-PAGE, Coomassie.
A further assay concerns the target ZZ-bdNEDD8-tagged RanGTP ( (mammalian), UniProt P62826 5-180, Q69L). As to the kind of experiment: pull-down; 1 μM Xpo4 wild type or mutants, 0.75 μM ZZ-bdNEDD8-tagged RanGTP, 1.25 μM hypusinated eIF5A, 100 mM NaCl buffer; retrieved via tagged Ran; eluted by bdNEDP1 protease; SDS-PAGE, Coomassie.
The target of assay [2] is RanQ69L (aa 5–180), GTP-bound, untagged ( (mammalian), UniProt P62826 5-180, Q69L). In words: SEC; complexes of Xpo4 variants, RanGTP and a 1.3-molar excess of hypusine-containing eIF5A, retrieved on anti-ZZ beads via tagged RanGTP, eluted by bdSENP1, then Superdex 200 16/60 in 15 mM Tris/HCl pH 7.7, 18 mM NaCl, 2 mM Mg(OAc)2, 2 mM DTT; peak fractions on SDS-PAGE. Background: Size exclusion chromatography separates by hydrodynamic size, large species first.

In assay [3] the target is B2. The description is as above.
Another assay deals with T1, Xpo4 ΔLoopN&C ( (mammalian), UniProt Q9ESJ0 1-1151, Δ241–260 | Δ931–948).
T1 construct: Xpo4 (exportin 4), mammalian, with loops 241-260 and 931-948 deleted; 1,113 residues printed; Crystallised form; 1,052 of 1,113 residues are modelled in PDB 5DLQ; also called ΔLoopN&C Xpo4 variant; Xpo4 loop deletion mutant; source: E. coli Top10 F', purified (Ni(II) chelate, bdSENP1 elution, Superdex 200, Mono Q); selenomethionine form from BL21; not shown: His14, N-terminal, cleaved; bdSUMO, …
The description is as above.

Chain of Xpo4 wild type (Q9ESJ0 whole entry, the tested form may be a part): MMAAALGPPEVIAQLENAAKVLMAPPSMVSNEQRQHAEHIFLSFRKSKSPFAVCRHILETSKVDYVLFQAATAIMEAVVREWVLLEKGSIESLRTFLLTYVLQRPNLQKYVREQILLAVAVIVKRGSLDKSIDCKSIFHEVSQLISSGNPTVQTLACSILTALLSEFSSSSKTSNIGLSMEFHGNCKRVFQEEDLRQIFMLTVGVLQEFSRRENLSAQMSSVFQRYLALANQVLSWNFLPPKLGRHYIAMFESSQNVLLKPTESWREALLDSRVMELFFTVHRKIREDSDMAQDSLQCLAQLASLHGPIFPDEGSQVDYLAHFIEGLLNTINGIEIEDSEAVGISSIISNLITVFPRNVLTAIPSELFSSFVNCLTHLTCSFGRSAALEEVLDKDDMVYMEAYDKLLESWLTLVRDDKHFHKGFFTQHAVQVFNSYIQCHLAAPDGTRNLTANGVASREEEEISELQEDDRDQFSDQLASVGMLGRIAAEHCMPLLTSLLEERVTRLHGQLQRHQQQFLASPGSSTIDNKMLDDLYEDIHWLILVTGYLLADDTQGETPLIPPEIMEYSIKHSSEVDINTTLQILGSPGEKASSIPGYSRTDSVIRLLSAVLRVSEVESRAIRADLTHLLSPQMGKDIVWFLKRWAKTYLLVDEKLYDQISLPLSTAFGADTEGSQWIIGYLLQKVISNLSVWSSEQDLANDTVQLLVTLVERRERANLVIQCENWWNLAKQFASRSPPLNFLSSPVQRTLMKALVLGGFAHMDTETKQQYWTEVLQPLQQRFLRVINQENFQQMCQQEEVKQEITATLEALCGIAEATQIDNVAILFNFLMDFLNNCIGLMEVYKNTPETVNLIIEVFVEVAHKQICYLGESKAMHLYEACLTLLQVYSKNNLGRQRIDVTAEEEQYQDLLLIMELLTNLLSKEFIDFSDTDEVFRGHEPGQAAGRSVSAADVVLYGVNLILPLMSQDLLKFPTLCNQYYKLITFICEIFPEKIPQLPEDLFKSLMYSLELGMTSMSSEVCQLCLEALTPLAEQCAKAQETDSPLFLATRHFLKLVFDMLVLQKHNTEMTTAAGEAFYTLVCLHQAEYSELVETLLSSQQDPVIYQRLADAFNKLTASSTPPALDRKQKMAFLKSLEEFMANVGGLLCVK
T1 sequence (Q9ESJ0 other isoform, or with tags, fused parts or gaps Δ241–260 | Δ931–948 | Δ241–260 | Δ931–948 | mutant): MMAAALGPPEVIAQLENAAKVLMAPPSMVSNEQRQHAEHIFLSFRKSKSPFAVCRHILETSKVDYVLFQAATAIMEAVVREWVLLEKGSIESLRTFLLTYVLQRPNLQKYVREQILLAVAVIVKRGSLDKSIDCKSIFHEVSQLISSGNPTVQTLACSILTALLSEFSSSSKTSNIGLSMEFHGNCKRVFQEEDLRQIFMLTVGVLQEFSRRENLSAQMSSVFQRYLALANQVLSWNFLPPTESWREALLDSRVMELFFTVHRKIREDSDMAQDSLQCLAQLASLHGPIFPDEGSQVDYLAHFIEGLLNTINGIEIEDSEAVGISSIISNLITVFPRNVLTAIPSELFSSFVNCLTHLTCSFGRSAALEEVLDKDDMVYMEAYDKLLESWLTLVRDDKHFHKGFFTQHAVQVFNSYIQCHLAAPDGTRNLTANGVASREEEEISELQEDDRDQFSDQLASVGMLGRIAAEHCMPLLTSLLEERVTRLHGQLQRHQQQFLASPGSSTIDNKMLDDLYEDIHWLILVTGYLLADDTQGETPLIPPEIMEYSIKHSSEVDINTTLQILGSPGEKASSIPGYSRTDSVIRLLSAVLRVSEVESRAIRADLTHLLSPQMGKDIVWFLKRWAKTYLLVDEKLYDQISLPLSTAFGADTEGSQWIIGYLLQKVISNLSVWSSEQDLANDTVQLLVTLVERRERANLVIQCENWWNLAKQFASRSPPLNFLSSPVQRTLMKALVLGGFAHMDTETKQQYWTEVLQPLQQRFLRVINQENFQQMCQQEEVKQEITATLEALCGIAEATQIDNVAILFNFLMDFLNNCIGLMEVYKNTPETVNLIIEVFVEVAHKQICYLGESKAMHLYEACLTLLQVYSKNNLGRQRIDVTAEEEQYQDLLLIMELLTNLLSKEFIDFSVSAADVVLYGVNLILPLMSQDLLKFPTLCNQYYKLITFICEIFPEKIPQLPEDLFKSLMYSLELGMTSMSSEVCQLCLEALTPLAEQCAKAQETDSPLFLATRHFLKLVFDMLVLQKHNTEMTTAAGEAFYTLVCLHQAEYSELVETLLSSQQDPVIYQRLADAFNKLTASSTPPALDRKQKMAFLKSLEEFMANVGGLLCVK

B1: eIF5A, full-length, hypusinated (natural protein)
chain: not shown
modifications: hypusine (N-ɛ-(4-amino-2-hydroxybutyl)-lysine) at 50
notes: eIF5A, mammalian; lysine 50 in human numbering carries the hypusine; In the nuclear export assay this protein carried an Alexa568 label; also called eIF5A(Hpu); hypusinated eIF5A; source: E. coli NEB Express, purified; hypusinated in vitro by recombinant deoxyhypusine synthase and deoxyhypusine hydroxylase; eluted from anti-ZZ matrix by bdSENP1; cation exchange; not shown: His14, N-terminal, …
B1: in the assay with Xpo4 wild type [1], the binding result is “binds”.

As to B2, the binding result (with ZZ-bdNEDD8-tagged RanGTP; in assay [2]) was “binds” each time.

B3: Xpo4 D470N (natural protein)
chain: not shown
B3: the binding result with ZZ-bdNEDD8-tagged RanGTP is recorded as “binds”.

B4: Xpo4 E537Q (natural protein)
chain: not shown
B4: in the assay with ZZ-bdNEDD8-tagged RanGTP, the binding result is on record as “binds”.

B5: Xpo4 S631A (natural protein)
chain: not shown
As to B5, the binding result with ZZ-bdNEDD8-tagged RanGTP is “binds”.

B6: eIF5A truncated (14 N-terminal residues deleted), hypusinated (domain or fragment)
chain: not shown
modifications: hypusine (N-ɛ-(4-amino-2-hydroxybutyl)-lysine) at 50
As for B6, the binding result with Xpo4 wild type [3] and in the assay with Xpo4 ΔLoopN&C was “binds” throughout.
